Assay results from publication PMC12102759 (2025).

B1: RNF115 peptide 67-82 (E3 ubiquitin-protein ligase RNF115), 16-mer library wild type / MDM2 SWIB (MDM2 SWIB/MDM2 domain, residues 17-125) (parent complex)
chain 1: TTTHFAELWGHLDHTM
chain 2: SQIPASEQETLVRPKPLLLKLLKSVGAQKDTYTMKEVLFYLGQYIMTKRLYDEKQQHIVYCSNDLLGDLFGVPSFSVKEHRKIYTMIYRNLVVVNQQESSDSGTSVSEN

Variants of: B1
Test: proteomic peptide phage display deep mutational scan (ProP-PD DMS): M13 P8 16-mer library selected against immobilised GST-tagged bait for four days (rounds), NGS of the eluted pools per day and pseudo-replica; bait immobilised on MaxiSorp plates (10 µg), library pre-cleared on GST, 2 h binding at 4 °C, five washes; one round per day, days 1-4; value from days 2 and 3

Variant | screen value
chain 1 H4G | 0.00192 average fractional NGS count over selection days 2 and 3 (reads of this peptide / all reads for the bait, averaged over …
chain 1 H4D | 0.000343 average fractional NGS count over selection days 2 and 3 (reads of this peptide / all reads for the bait, averaged over …
chain 1 H4A | 0.000176 average fractional NGS count over selection days 2 and 3 (reads of this peptide / all reads for the bait, averaged over …
chain 1 H4F | 0.000236 average fractional NGS count over selection days 2 and 3 (reads of this peptide / all reads for the bait, averaged over …
chain 1 H4L | 0.000482 average fractional NGS count over selection days 2 and 3 (reads of this peptide / all reads for the bait, averaged over …
chain 1 H4I | 0.000874 average fractional NGS count over selection days 2 and 3 (reads of this peptide / all reads for the bait, averaged over …
chain 1 L12M | 0.000189 average fractional NGS count over selection days 2 and 3 (reads of this peptide / all reads for the bait, averaged over …
chain 1 H11N | 0.000176 average fractional NGS count over selection days 2 and 3 (reads of this peptide / all reads for the bait, averaged over …
chain 1 H11G | 0.000565 average fractional NGS count over selection days 2 and 3 (reads of this peptide / all reads for the bait, averaged over …
chain 1 H11K | 0.000921 average fractional NGS count over selection days 2 and 3 (reads of this peptide / all reads for the bait, averaged over …
chain 1 H11V | 0.00167 average fractional NGS count over selection days 2 and 3 (reads of this peptide / all reads for the bait, averaged over …
chain 1 H11D | 0.00024 average fractional NGS count over selection days 2 and 3 (reads of this peptide / all reads for the bait, averaged over …
chain 1 H11M | 0.00257 average fractional NGS count over selection days 2 and 3 (reads of this peptide / all reads for the bait, averaged over …
chain 1 H11T | 0.00102 average fractional NGS count over selection days 2 and 3 (reads of this peptide / all reads for the bait, averaged over …
chain 1 H11S | 0.000392 average fractional NGS count over selection days 2 and 3 (reads of this peptide / all reads for the bait, averaged over …
chain 1 E7D | 0.000661 average fractional NGS count over selection days 2 and 3 (reads of this peptide / all reads for the bait, averaged over …
chain 1 L8H | 0.000131 average fractional NGS count over selection days 2 and 3 (reads of this peptide / all reads for the bait, averaged over …
chain 1 L8F | 0.000568 average fractional NGS count over selection days 2 and 3 (reads of this peptide / all reads for the bait, averaged over …
chain 1 L8Y | 0.0291 average fractional NGS count over selection days 2 and 3 (reads of this peptide / all reads for the bait, averaged over …

Variant | screen value
chain 1 T15G | 0.0009 average fractional NGS count over selection days 2 and 3 (reads of this peptide / all reads for the bait, averaged over …
chain 1 T15Y | 0.00205 average fractional NGS count over selection days 2 and 3 (reads of this peptide / all reads for the bait, averaged over …
chain 1 T15H | 0.000116 average fractional NGS count over selection days 2 and 3 (reads of this peptide / all reads for the bait, averaged over …
chain 1 T15L | 7.38e-05 average fractional NGS count over selection days 2 and 3 (reads of this peptide / all reads for the bait, averaged over …
chain 1 T15M | 0.00385 average fractional NGS count over selection days 2 and 3 (reads of this peptide / all reads for the bait, averaged over …
chain 1 T15W | 0.00561 average fractional NGS count over selection days 2 and 3 (reads of this peptide / all reads for the bait, averaged over …
chain 1 T3I | 0.00069 average fractional NGS count over selection days 2 and 3 (reads of this peptide / all reads for the bait, averaged over …
chain 1 T3S | 0.000431 average fractional NGS count over selection days 2 and 3 (reads of this peptide / all reads for the bait, averaged over …
chain 1 T3D | 0.000232 average fractional NGS count over selection days 2 and 3 (reads of this peptide / all reads for the bait, averaged over …
chain 1 T3H | 0.000104 average fractional NGS count over selection days 2 and 3 (reads of this peptide / all reads for the bait, averaged over …
chain 1 T3Q | 0.000196 average fractional NGS count over selection days 2 and 3 (reads of this peptide / all reads for the bait, averaged over …
chain 1 T3L | 0.00187 average fractional NGS count over selection days 2 and 3 (reads of this peptide / all reads for the bait, averaged over …
chain 1 T3V | 0.000622 average fractional NGS count over selection days 2 and 3 (reads of this peptide / all reads for the bait, averaged over …
chain 1 T3A | 0.000681 average fractional NGS count over selection days 2 and 3 (reads of this peptide / all reads for the bait, averaged over …
chain 1 M16T | 0.00044 average fractional NGS count over selection days 2 and 3 (reads of this peptide / all reads for the bait, averaged over …
chain 1 M16W | 0.000718 average fractional NGS count over selection days 2 and 3 (reads of this peptide / all reads for the bait, averaged over …
chain 1 A6W | 0.000676 average fractional NGS count over selection days 2 and 3 (reads of this peptide / all reads for the bait, averaged over …
chain 1 A6H | 0.00017 average fractional NGS count over selection days 2 and 3 (reads of this peptide / all reads for the bait, averaged over …
